According to patent US7074560B2, “Purification of tissue plasminogen activator (tPA)” (Dyax Corp., priority 1996, dated 2006):
Positions of bridges follow the written chain, without caps; N, C: chain ends. No end group written: not given here.

Target: tPA (Homo sapiens, UniProt P00750)
Assay: 15-amino acid segment bound to a chromatographic support: tPA binding
Settings: initial studies
Description: As noted above, almost all of the variegation in amino acid positions used in building the CMTI library occurred between two cyteines at positions 3 and 10 of CMTI-I (see Table 3). In the parental CMTI protein, these cysteines form disulfide bonds with other cysteine residues elsewhere in the protein (see SEQ ID NO: 1), however with the successful isolation of affinity ligands from the CMTI library, a secondary library was conceptualized which was based on variegating a truncated 15-amino acid segment of the isolate #109 (see amino acids 1–15 of SEQ ID NO: 12). If the C3 and C10 cysteines of these members formed a disulfide bond, then a constrained loop having tPA binding properties might be obtained.

Sequence of tPA (P00750 36-562): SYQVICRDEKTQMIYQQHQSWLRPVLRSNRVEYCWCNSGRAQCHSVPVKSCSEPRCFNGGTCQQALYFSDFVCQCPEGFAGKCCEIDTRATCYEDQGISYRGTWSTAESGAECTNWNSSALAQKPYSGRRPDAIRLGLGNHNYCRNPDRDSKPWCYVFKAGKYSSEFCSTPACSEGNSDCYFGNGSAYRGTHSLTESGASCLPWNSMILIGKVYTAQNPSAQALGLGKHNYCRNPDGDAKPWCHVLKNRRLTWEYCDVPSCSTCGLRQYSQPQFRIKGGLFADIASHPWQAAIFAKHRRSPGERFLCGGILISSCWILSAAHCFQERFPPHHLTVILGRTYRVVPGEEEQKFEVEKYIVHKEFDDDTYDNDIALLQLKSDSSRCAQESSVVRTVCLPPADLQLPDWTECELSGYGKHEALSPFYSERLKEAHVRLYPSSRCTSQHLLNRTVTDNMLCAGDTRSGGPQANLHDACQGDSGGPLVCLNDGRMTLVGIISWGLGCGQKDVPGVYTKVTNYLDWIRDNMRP

15-amino acid segment derived from affinity ligand isolate #109: truncated 15-amino acid segment of isolate #109 (amino acids 1–15 of SEQ ID NO: 12), C3–C10 disulfide loop (RLCPKTDLGCMKDSD; disulfide 3-10)
binding of the immobilized C3–C10 loop to tPA: bound to tPA
